This data set has as its target T1, cardiotoxin 3 (CTX3) (Naja naja atra (Taiwan cobra), UniProt P60301 22-81).
T1 sequence: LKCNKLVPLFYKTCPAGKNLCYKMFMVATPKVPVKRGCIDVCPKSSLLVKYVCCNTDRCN
The data set can be described thus: fluorescence quenching titration; 20 nM aptamer; >80% quenching, saturated at 400 nM CTX3; 10 mM HEPES pH 8.0, 30 C, 5 min incubation, no added salt stated; 20 nM aptamer or 10 nM MB. The note with it: protein: native; label: 5'-FAM; 3'-DABCYL.

Regarding GCGAGGTGTTCGAGAGTTAGGGGCGACATGACCAAACGTT (ssDNA) [DNA aptamer against CTX3], the binding result is “binds”.

The values are drawn from publication PMC6017339, “A Turn-on Fluorescence Sensor for Heparin Detection Based on a Release of Taiwan Cobra Cardiotoxin from a DNA Aptamer or Adenosine-Based Molecular Beacon”.
